Measured values taken from patent US20160075743A1 (AGRESEARCH, published 2016).

Legend:
[1] = target: T1, YenB/YenC2-N complex (hollow shell) (Yersinia entomophaga, UniProt B6A880 1-1487; B6A882 1-690); test: SAXS and crystal structure; encapsulation in the shell
T1 construct: Heterodimer of YenB and YenC2-N. It is used here as the partner that encapsulates YenC2-C or GFP; also called TcB:TcC shell; BC shell

[2] = target: T2, Yersinia entomophaga YenB (TcB component of the Yen-Tc toxin complex) (Yersinia entomophaga, UniProt B6A880 1-1487); test: co-expression, co-purification by Ni-affinity and SEC
T2 sequence: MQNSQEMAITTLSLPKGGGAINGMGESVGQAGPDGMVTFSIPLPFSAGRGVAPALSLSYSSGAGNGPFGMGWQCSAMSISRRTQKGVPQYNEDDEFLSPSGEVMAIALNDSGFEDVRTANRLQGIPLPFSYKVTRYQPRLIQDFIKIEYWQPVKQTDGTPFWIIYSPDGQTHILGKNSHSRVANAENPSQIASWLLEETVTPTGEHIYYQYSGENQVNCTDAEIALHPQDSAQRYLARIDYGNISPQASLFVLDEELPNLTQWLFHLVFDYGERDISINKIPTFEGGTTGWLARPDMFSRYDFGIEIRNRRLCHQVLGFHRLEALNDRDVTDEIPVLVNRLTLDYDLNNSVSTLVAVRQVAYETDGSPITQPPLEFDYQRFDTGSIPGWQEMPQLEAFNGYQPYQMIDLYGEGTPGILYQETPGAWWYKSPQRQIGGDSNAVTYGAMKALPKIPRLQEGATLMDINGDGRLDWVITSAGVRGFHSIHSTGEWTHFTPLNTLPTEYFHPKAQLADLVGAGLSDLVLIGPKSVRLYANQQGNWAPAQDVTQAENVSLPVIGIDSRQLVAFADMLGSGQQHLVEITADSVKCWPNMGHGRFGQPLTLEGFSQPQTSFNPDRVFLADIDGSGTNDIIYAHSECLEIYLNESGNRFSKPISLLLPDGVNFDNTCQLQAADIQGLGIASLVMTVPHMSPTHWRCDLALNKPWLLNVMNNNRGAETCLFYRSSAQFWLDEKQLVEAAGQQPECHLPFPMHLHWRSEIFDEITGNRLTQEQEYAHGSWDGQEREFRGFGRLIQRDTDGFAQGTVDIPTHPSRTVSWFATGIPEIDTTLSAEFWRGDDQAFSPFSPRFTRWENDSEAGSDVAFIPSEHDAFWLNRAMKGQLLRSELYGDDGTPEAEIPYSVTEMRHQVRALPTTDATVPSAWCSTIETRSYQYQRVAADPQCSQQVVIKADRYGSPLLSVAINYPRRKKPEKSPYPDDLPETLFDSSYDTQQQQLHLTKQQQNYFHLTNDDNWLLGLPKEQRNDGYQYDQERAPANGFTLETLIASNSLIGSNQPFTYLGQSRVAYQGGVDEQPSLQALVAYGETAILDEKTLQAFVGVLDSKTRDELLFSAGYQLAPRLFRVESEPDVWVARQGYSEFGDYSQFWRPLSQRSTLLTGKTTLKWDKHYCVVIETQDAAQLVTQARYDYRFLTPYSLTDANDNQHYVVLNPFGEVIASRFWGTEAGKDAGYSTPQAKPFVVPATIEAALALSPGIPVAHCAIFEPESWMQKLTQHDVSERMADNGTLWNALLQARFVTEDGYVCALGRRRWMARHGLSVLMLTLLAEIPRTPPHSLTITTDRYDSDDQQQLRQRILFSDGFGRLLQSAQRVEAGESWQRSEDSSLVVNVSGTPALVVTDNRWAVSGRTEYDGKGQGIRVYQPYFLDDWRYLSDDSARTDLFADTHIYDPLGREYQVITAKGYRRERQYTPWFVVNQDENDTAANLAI

[3] = target: T2, Yersinia entomophaga YenB (TcB …); test: co-expression in E. coli, size-exclusion chromatography
[4] = target: T2, Yersinia entomophaga YenB (TcB …); test: X-ray crystal structure (figure legend)
[5] = target: T2, Yersinia entomophaga YenB (TcB …); test: purification after precipitation of the C-terminal domain at pH 4.5-5.0

B1: C-terminal region of YenC2 (YenC2-C) (other)
chain: APLDWLDLDTTNASRDIVKAIYQLNQIDGPHRGVRDTYQRMTESTGMILQETLNNEAVLKGIKQKDKEKKSRGMKFTNSKLKTYAAHAGVLNTLQPDPVYKDGFLNLPGSLGNKNTFPGVELIEDKVKPSLSQYHPDKLGKSQRWKPESSLGYYRVADTEAFITGIRSQYKSSGTDLHAVVEGRIRDHLLANNNVLPKMAGIAGLHAEVQALNYIISNPDIEGGNAERLNGSYIFTQRLVGDVNQDFPACYNCSGIISGLENVMTGRVNNDVRLKRRKSF
notes: also called YenC-C; TcC-C
- binding result [1]: binds

B2: Yersinia entomophaga YenC2 (TcC component) (other)
chain: MDIQLFSKTPSVTVFDNRGLSVRDIAYRRHPDTPKVTEECITYHQFDFRGFLAQSLDPRLNHKEVTNFSYLTDLNGNIIYTQSVDAGNTLVLNDTEGRSVIAMTNISRGENGKDDLSLAVTRTFQYENAPLPGRPLSVTEQVNGENARITEHFVYAGNTPQEKNLNLAGQCVSYYDAAGLIQTDSVSLTGKPLSVSRKLLKNLDDTNILADWQGNDTSAWNSLLATEIYTTVTRTDAAGAVLTTIDAVGNQQRVAFDIAGQLSASWLTLKGGQEQVIIKVLTYSAAGQKLREEGGNGVVTTYTYEAETQRLIGIKTERPNGHAAGAKVLQDLRYEYDPVGNVLSITNDAEETRFWRNQKVVPENAYRYDSLYQLVSASGREVAGAGQQGSDLPSPLVPLPSDSSVYTNYTRTYTYDSAGNLMRIRHSAPATNNNYTLNITVSERSNRGVMSSLTENPADVDALFTASGSQKCLQQGQSLIWTPRGELRTVLLVARGETADDSESYRYDGSSQRILKISSQQTNHSARVQRALYLPGLEWRTMTGGVAEAENLQVICIGEAGRAQVRVLHWESGKPDGIINDQIRWSYDNLTCSSGLEVDGDGLVISMEEYYPYGGTAVWAARSHIETAYKTVRYSGKERDATGLYYYGFRYYQPWAGRWLSADPAGTVDGLNLYRMVRNNPLRLTDPDGMAPLDWLDLDTTNASRDIVKAIYQLNQIDGPHRGVRDTYQRMTESTGMILQETLNNEAVLKGIKQKDKEKKSRGMKFTNSKLKTYAAHAGVLNTLQPDPVYKDGFLNLPGSLGNKNTFPGVELIEDKVKPSLSQYHPDKLGKSQRWKPESSLGYYRVADTEAFITGIRSQYKSSGTDLHAVVEGRIRDHLLANNNVLPKMAGIAGLHAEVQALNYIISNPDIEGGNAERLNGSYIFTQRLVGDVNQDFPACYNCSGIISGLENVMTGRVNNDVRLKRRKSF
notes: Expressed as the whole protein; When co-expressed with YenB it self-cleaves after M690 into YenC2-N and YenC2-C, and both fragments stay in the complex
- binding result [2]: binds

B3: Yersinia entomophaga YenC1 (TcC component) (other)
chain: MNQFDSALHQGTPGVSVLDNRGHVIRELRYYRHPDTPQEIAERIAFHQYDSYGFISQSIDPRLAERRKQDSSVKPNLSYFTALSGEVLRTDGVDAGTIFSLNDIAARPAISISATGVSHTWQYEGENRPGRVLSRSEREKDREERIIERFYWAGSDASQKANNLAGQCLRHYNSAGLNQTLSIALTGTPISACFQPLLESAEPEWQGTNESAWLELLTPEIFTTYNRADANGETLVQTDAMGNIQRLAYDVAGFLKSSWLSLKGGQEQIIVKSLTYSAAGQKLQEEHGNGVLTTYSYEAETQRLIGIRTERPAGHLSGARVFQDLRYTYDPVGNVLRITNDAEATRFWRNQKVVPENTYIYDTLYQLVSANGREMANIPQQSSQLPTLSPIDNNAYTNYIRNYHYDSAGNLMQIRHTSAAANNSYTTNITVSKYSNRAVLSSLTDDVDKVEAFFDAAGRQNQLLPGQTLSWNARGELAKVTPVARDGQESDSETYRYDANSQRVSKMAIQQSNNNTQTRRVLYLAGLERRTIHQGNTLFETLLVVKIGEAGRAQVQAMHWELGQPTEVANDELRYSYDNLIGSSGLEVDGTGQLISQEEYYPYGGTAVWMARSQREASDKAYGYSGKERDATGLYYYGFRYYQPWAGRWLSADPAGTIDGLNLFRMVRNNPIVLHDPDGLAPGFFERISSFRKKDTLTISSLKGTGPFYTRSESEIDIDFLFSRQDRDKDFPPQNHKELSAEDRREVLEVSSGENITSANKSSKWYAGTHWETKPLKNNTDLVVLHNGVQGAAGININLNDIKPGRSVLVTAGTLTGCTMITGVKGNNFYALHAGTGTPSENWVTGEHGVTDNFRMLNKLIPDAGIDLNPEAVNDSLLTILDYFDNGTIAYNGKKGSEIHRDADNILNYRTTGYENTVGVSFSLLTKDKNGEVSASTLLELGELKPHKKHRTRGQFGMTELKYEARKNTVVKLR
notes: Expressed as the whole protein; When co-expressed with YenB it auto-proteolyses into two fragments, and both co-elute with YenB
- binding result [3]: binds

B4: conserved N-terminal 76 kDa portion of YenC2 (YenC2-N) (other)
chain: MDIQLFSKTPSVTVFDNRGLSVRDIAYRRHPDTPKVTEECITYHQFDFRGFLAQSLDPRLNHKEVTNFSYLTDLNGNIIYTQSVDAGNTLVLNDTEGRSVIAMTNISRGENGKDDLSLAVTRTFQYENAPLPGRPLSVTEQVNGENARITEHFVYAGNTPQEKNLNLAGQCVSYYDAAGLIQTDSVSLTGKPLSVSRKLLKNLDDTNILADWQGNDTSAWNSLLATEIYTTVTRTDAAGAVLTTIDAVGNQQRVAFDIAGQLSASWLTLKGGQEQVIIKVLTYSAAGQKLREEGGNGVVTTYTYEAETQRLIGIKTERPNGHAAGAKVLQDLRYEYDPVGNVLSITNDAEETRFWRNQKVVPENAYRYDSLYQLVSASGREVAGAGQQGSDLPSPLVPLPSDSSVYTNYTRTYTYDSAGNLMRIRHSAPATNNNYTLNITVSERSNRGVMSSLTENPADVDALFTASGSQKCLQQGQSLIWTPRGELRTVLLVARGETADDSESYRYDGSSQRILKISSQQTNHSARVQRALYLPGLEWRTMTGGVAEAENLQVICIGEAGRAQVRVLHWESGKPDGIINDQIRWSYDNLTCSSGLEVDGDGLVISMEEYYPYGGTAVWAARSHIETAYKTVRYSGKERDATGLYYYGFRYYQPWAGRWLSADPAGTVDGLNLYRMVRNNPLRLTDPDGM
notes: Made by self-cleavage of YenC2 after M690 when co-expressed with YenB; The C-terminal fragment was removed at pH 4.5; also called YenC2NTR; YenC2 - N term
- binding result [4]: binds

B5: N-terminal portion of YenC1 (other)
chain: MNQFDSALHQGTPGVSVLDNRGHVIRELRYYRHPDTPQEIAERIAFHQYDSYGFISQSIDPRLAERRKQDSSVKPNLSYFTALSGEVLRTDGVDAGTIFSLNDIAARPAISISATGVSHTWQYEGENRPGRVLSRSEREKDREERIIERFYWAGSDASQKANNLAGQCLRHYNSAGLNQTLSIALTGTPISACFQPLLESAEPEWQGTNESAWLELLTPEIFTTYNRADANGETLVQTDAMGNIQRLAYDVAGFLKSSWLSLKGGQEQIIVKSLTYSAAGQKLQEEHGNGVLTTYSYEAETQRLIGIRTERPAGHLSGARVFQDLRYTYDPVGNVLRITNDAEATRFWRNQKVVPENTYIYDTLYQLVSANGREMANIPQQSSQLPTLSPIDNNAYTNYIRNYHYDSAGNLMQIRHTSAAANNSYTTNITVSKYSNRAVLSSLTDDVDKVEAFFDAAGRQNQLLPGQTLSWNARGELAKVTPVARDGQESDSETYRYDANSQRVSKMAIQQSNNNTQTRRVLYLAGLERRTIHQGNTLFETLLVVKIGEAGRAQVQAMHWELGQPTEVANDELRYSYDNLIGSSGLEVDGTGQLISQEEYYPYGGTAVWMARSQREASDKAYGYSGKERDATGLYYYGFRYYQPWAGRWLSADPAGTIDGLNLFRMVRNNPIVLHDPDGL
notes: Fragment left in complex with YenB after the C-terminal domain precipitated at low pH; also called YenC1 - N term; N-terminal portions of YenC
- binding result [5]: binds
